Data taken from PMC8395186, “Structural Basis of Inhibition of DCLK1 by Ruxolitinib” (International Journal of Molecular Sciences, 2021).

Target: the molecule itself
Experiment: crystal structure; sitting-drop vapor diffusion at 23 °C; co-crystallised with AMP-PNP, then soaked with ruxolitinib; two molecules per asymmetric unit; interface analysed with the PISA server

B1: Doublecortin-like kinase 1 (DCLK1) kinase domain (domain or fragment, UniProt O15075 372-649, looked up)
chain: GEEVSEEGFQIPATITERYKVGRTIGDGNFAVVKECVERSTAREYALKIIKKSKCRGKEHMIQNEVSILRRVKHPNIVLLIEEMDVPTELYLVMELVKGGDLFDAITSTNKYTERDASGMLYNLASAIKYLHSLNIVHRDIKPENLLVYEHQDGSKSLKLGDFGLATIVDGPLYTVCGTPTYVAPEIIAETGYGLKVDIWAAGVITYILLCGFPPFRGSGDDQEVLFDQILMGQVDFPSPYWDNVSDSAKELITMMLLVDVDQRFSAVQVLEHPWVND
notes: Doublecortin-like kinase 1 (DCLK1), kinase domain, residues Gly372-Asp649; residues 376-648 are resolved in the structure; Non-phosphorylated; Crystallised with AMP-PNP, then soaked with ruxolitinib; Two molecules per asymmetric unit form the dimer; also called DCLK1KD; source: E. coli Rosetta2(DE3)pLysS, purified (Ni-NTA, TEV cleavage, SEC); not shown: His6, N-terminal, cleaved
For B1, the “stoichiometry N” value was 2.
